# Assays:
# [1] = tested on: GNH nanocarrier (GP41 endosome release motif, DNA condensing motif, NLS) (synthetic construct); assay: EMSA (agarose gel retardation); details: not given in the material (gel retardation methods text absent); ethidium bromide staining
# [2] = tested on: HNH nanocarrier (H5WYG endosome release motif, DNA condensing motif, NLS) (synthetic construct); assay: EMSA (agarose gel retardation); details: not given in the material (gel retardation methods text absent); ethidium bromide staining
substance,measurement,setting,value
pGL3 plasmid,binding (N/P ratio for complete retardation),[1],1
same,binding (N/P ratio for complete retardation),[2],1

# From paper PMC5269746
